T1: FcγRIIb (human, UniProt P31994 43-217)
T1 construct: extracellular domain; Soluble extracellular domain with C-terminal His tag, used as analyte in Biacore; also called FcgRIIb; 2b; not shown: His tag attached to the C terminus
T1 sequence (looked up): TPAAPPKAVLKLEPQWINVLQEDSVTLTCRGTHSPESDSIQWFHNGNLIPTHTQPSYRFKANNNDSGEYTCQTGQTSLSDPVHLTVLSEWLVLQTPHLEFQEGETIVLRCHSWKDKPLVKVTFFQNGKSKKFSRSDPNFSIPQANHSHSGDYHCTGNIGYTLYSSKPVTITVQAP

T2: FcγRIIb extracellular domain with C-terminal His tag (human, UniProt P31994 43-217)
T2 construct: extracellular domain; also called 2b; FcgRIIb; not shown: His tag at the C terminus
T2 sequence (looked up): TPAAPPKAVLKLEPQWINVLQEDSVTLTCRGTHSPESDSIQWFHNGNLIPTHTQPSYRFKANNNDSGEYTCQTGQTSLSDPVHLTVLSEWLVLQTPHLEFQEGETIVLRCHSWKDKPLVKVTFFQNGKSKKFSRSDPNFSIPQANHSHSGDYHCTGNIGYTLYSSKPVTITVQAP


What was measured:
FcγRIa = target: T3, FcγRIa (human, UniProt P12314 16-292); assay: SPR (Biacore), antibody captured, FcγR as analyte; relative to GpH7-A5/GpH7-B3/GpL16-k0 = 100
T3 construct: extracellular domain; Soluble extracellular domain with C-terminal His tag, used as analyte in Biacore; also called FcgRI; 1a; not shown: His tag attached to the C terminus
Method: (§1) The heterodimerized antibodies He Abs in which one of the H chains was introduced with an alteration were assayed for their binding activities to each activating FcγR and inhibitory FcγR according to the method described in Example 4. […] The activating FcγRs in FIGS. 26, 27, 28, and 29 are FcγRIa, FcγRIIa (R), FcγRIIa (H), and FcγRIIIa, respectively.
(§2) Analysis of interaction between objective antibody and the FcγR was carried out using Biacore T100 (GE Healthcare). HBS-EP+ (GE Healthcare) was used as the running buffer, and the measurement temperature was set to 25° C. Chips produced by immobilizing the antigen peptide by the amine coupling method to a Series S Sencor Chip CM5 (GE Healthcare), or alternatively, chips produced by allowing preliminarily biotinylated antigen peptides to interact with and immobilize onto a Series S Sensor Chip SA (certified) (GE Healthcare) were used. Antibodies of interest were captured onto an antigen peptide-immobilized chip, and allowed to interact to each FcγR diluted with running buffer. To regenerate and repeatedly use the chip, the antibodies captured on the chip were washed off by reacting 10 mM glycine-HCl, pH 1.5.

FcγRIIb = target: T1, FcγRIIb; assay: as above
Method: as §1, §2

[1] = target: T4, FcγRIIIa extracellular domain with C-terminal His tag (human, UniProt P08637 17-208); assay: SPR (Biacore), relative to GpH7-A5/GpH7-B3/GpL16-k0 = 100
T4 construct: extracellular domain; also called 3a; FcgRIIIa; not shown: His tag at the C terminus

[2] = target: T2, FcγRIIb extracellular domain with …; assay: as above

T4 sequence (P08637 17-208): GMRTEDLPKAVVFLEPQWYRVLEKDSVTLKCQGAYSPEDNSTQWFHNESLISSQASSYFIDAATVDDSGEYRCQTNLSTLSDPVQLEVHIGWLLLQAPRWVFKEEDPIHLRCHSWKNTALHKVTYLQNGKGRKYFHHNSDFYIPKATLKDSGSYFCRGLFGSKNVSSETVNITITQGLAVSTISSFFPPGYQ
T3 sequence (P12314 16-292): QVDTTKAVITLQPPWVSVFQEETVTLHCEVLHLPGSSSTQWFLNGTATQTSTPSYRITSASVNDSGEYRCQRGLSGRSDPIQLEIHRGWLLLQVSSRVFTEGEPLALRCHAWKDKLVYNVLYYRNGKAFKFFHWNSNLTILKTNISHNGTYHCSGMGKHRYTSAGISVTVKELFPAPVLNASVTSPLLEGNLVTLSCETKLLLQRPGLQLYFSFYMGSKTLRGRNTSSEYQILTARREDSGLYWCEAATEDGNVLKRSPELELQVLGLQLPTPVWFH

Binder | He/Con_1a (FcγRIa) | He/Con_2b (FcγRIIb) | He/Con_3a [1] | He/Con_2b [2]
GpH7-A5/GpH7-B3 variant S298_06M/GpL16-k0 (antibody, human IgG1, kappa, IgG1, anti-glypican-3; also called He Ab) heavy 1: not shown heavy 2: not shown light: DIVMTQSPLSLPVTPGEPASISCQASESLVHSNRNTYLHWYLQKPGQSPQLLIYKVSNRFSGVPDRFSGSGSGTDFTLKISRVEAEDVGVYYCSQNTHVPPTFGQGTKVEIERTVAAPSVFIFPPSDEQLKSGTASVVCLLNNFYPREAKVQWKVDNALQSGNSQESVTEQDSKDSTYSLSSTLTLSKADYEKHKVYACEVTHQGLSSPVTKSFNRGEC |  |  | 92.6 % (control = 100) | 102 % (control = 100)
GpH7-A5/GpH7-B3 variant A327_18N/GpL16-k0 (antibody, human IgG1, kappa, Heterodimerized anti-glypican-3 IgG1; alteration in the GpH7-B3 chain only; also called He Ab) heavy 1: not shown heavy 2: not shown light: DIVMTQSPLSLPVTPGEPASISCQASESLVHSNRNTYLHWYLQKPGQSPQLLIYKVSNRFSGVPDRFSGSGSGTDFTLKISRVEAEDVGVYYCSQNTHVPPTFGQGTKVEIERTVAAPSVFIFPPSDEQLKSGTASVVCLLNNFYPREAKVQWKVDNALQSGNSQESVTEQDSKDSTYSLSSTLTLSKADYEKHKVYACEVTHQGLSSPVTKSFNRGEC | 97.7 % of control (=100) | 113 % of control (=100) |  | 
GpH7-A5/GpH7-B3 variant S267_19Q/GpL16-k0 (antibody, human IgG1, kappa, IgG1, anti-glypican-3; also called He Ab) heavy 1: not shown heavy 2: not shown light: DIVMTQSPLSLPVTPGEPASISCQASESLVHSNRNTYLHWYLQKPGQSPQLLIYKVSNRFSGVPDRFSGSGSGTDFTLKISRVEAEDVGVYYCSQNTHVPPTFGQGTKVEIERTVAAPSVFIFPPSDEQLKSGTASVVCLLNNFYPREAKVQWKVDNALQSGNSQESVTEQDSKDSTYSLSSTLTLSKADYEKHKVYACEVTHQGLSSPVTKSFNRGEC |  |  | 65 % (control = 100) | 218 % (control = 100)
GpH7-A5/GpH7-B3 variant L328_07I/GpL16-k0 (antibody, human IgG1, kappa, Heterodimerized anti-glypican-3 IgG1; alteration in the GpH7-B3 chain only; also called He Ab) heavy 1: not shown heavy 2: not shown light: DIVMTQSPLSLPVTPGEPASISCQASESLVHSNRNTYLHWYLQKPGQSPQLLIYKVSNRFSGVPDRFSGSGSGTDFTLKISRVEAEDVGVYYCSQNTHVPPTFGQGTKVEIERTVAAPSVFIFPPSDEQLKSGTASVVCLLNNFYPREAKVQWKVDNALQSGNSQESVTEQDSKDSTYSLSSTLTLSKADYEKHKVYACEVTHQGLSSPVTKSFNRGEC | 99.4 % of control (=100) | 160 % of control (=100) |  | 
GpH7-A5/GpH7-B3 variant V266_06M/GpL16-k0 (antibody, human IgG1, kappa, IgG1, anti-glypican-3; also called He Ab) heavy 1: not shown heavy 2: not shown light: DIVMTQSPLSLPVTPGEPASISCQASESLVHSNRNTYLHWYLQKPGQSPQLLIYKVSNRFSGVPDRFSGSGSGTDFTLKISRVEAEDVGVYYCSQNTHVPPTFGQGTKVEIERTVAAPSVFIFPPSDEQLKSGTASVVCLLNNFYPREAKVQWKVDNALQSGNSQESVTEQDSKDSTYSLSSTLTLSKADYEKHKVYACEVTHQGLSSPVTKSFNRGEC |  |  | 85.8 % (control = 100) | 251 % (control = 100)

The remaining lines, values ahead:

He/Con_1a (FcγRIa) | He/Con_2b (FcγRIIb) | He/Con_3a [1] | He/Con_2b [2] | Binder
97.1 % of control (=100) | 118 % of control (=100) |  |  | GpH7-A5/GpH7-B3 variant L235_04F/GpL16-k0 (antibody, human IgG1, kappa, Heterodimerized anti-glypican-3 IgG1; alteration in the GpH7-B3 chain only; also called He Ab) heavy 1: not shown heavy 2: not shown light: DIVMTQSPLSLPVTPGEPASISCQASESLVHSNRNTYLHWYLQKPGQSPQLLIYKVSNRFSGVPDRFSGSGSGTDFTLKISRVEAEDVGVYYCSQNTHVPPTFGQGTKVEIERTVAAPSVFIFPPSDEQLKSGTASVVCLLNNFYPREAKVQWKVDNALQSGNSQESVTEQDSKDSTYSLSSTLTLSKADYEKHKVYACEVTHQGLSSPVTKSFNRGEC
92.2 % of control (=100) | 111 % of control (=100) |  |  | GpH7-A5/GpH7-B3 variant G237_13S/GpL16-k0 (antibody, human IgG1, kappa, Heterodimerized anti-glypican-3 IgG1; alteration in the GpH7-B3 chain only; also called He Ab) heavy 1: not shown heavy 2: not shown light: DIVMTQSPLSLPVTPGEPASISCQASESLVHSNRNTYLHWYLQKPGQSPQLLIYKVSNRFSGVPDRFSGSGSGTDFTLKISRVEAEDVGVYYCSQNTHVPPTFGQGTKVEIERTVAAPSVFIFPPSDEQLKSGTASVVCLLNNFYPREAKVQWKVDNALQSGNSQESVTEQDSKDSTYSLSSTLTLSKADYEKHKVYACEVTHQGLSSPVTKSFNRGEC
98.5 % of control (=100) | 144 % of control (=100) |  |  | GpH7-A5/GpH7-B3 variant L328_02A/GpL16-k0 (antibody, human IgG1, kappa, Heterodimerized anti-glypican-3 IgG1; alteration in the GpH7-B3 chain only; also called He Ab) heavy 1: not shown heavy 2: not shown light: DIVMTQSPLSLPVTPGEPASISCQASESLVHSNRNTYLHWYLQKPGQSPQLLIYKVSNRFSGVPDRFSGSGSGTDFTLKISRVEAEDVGVYYCSQNTHVPPTFGQGTKVEIERTVAAPSVFIFPPSDEQLKSGTASVVCLLNNFYPREAKVQWKVDNALQSGNSQESVTEQDSKDSTYSLSSTLTLSKADYEKHKVYACEVTHQGLSSPVTKSFNRGEC
97.1 % of control (=100) | 101 % of control (=100) |  |  | GpH7-A5/GpH7-B3 variant N325_01G/GpL16-k0 (antibody, human IgG1, kappa, Heterodimerized anti-glypican-3 IgG1; alteration in the GpH7-B3 chain only; also called He Ab) heavy 1: not shown heavy 2: not shown light: DIVMTQSPLSLPVTPGEPASISCQASESLVHSNRNTYLHWYLQKPGQSPQLLIYKVSNRFSGVPDRFSGSGSGTDFTLKISRVEAEDVGVYYCSQNTHVPPTFGQGTKVEIERTVAAPSVFIFPPSDEQLKSGTASVVCLLNNFYPREAKVQWKVDNALQSGNSQESVTEQDSKDSTYSLSSTLTLSKADYEKHKVYACEVTHQGLSSPVTKSFNRGEC

From US20150344570A1 (published 2015)
